# Test results reported in the RNAGym collection of RNA variant scans (doi:10.7554/elife.90254).
# B1: LINE1-full (parent)
# chain: UACGUAGGUGGUUUUCCCCUGAUAGUGCUAAGGGGGCCUGGAAGUUUGGACUGGGCAGAGCUCAACACAGCGUGGCAAAGUGGCUGUGGCUAGACUGCCUCUCUGGAUUCCUCGUCACUCAGCAGGGCAUCUCUGAGAGAAAUGCC
# Variants of: B1
# Assay: self-cleavage, relative activity (ratio to wild type); higher = more cleavage; in vitro, sequencing; the parent is a self-cleaving ribozyme
row,Variant,self-cleavage
1,U26A A57C,0.02
2,A77U A138U,1.27
3,U81C A140U,1.9
4,C133U A141G,1.4
5,G48A U109A,2.18
6,U5G U112C,0.51
7,U109G,0.63
8,G60U U62C,0.08
9,U26A G36C,0.41
10,U14C A69C,0.08
11,A6U A124G,0.6
12,U9A A24G,0.93
13,U29C C131U,0.93
14,C51A A57G,0.48
15,A50G C118U,0.71
16,U14C A24G,0.81
17,U12G G70A,0.07
18,U29C U100A,1.42
19,A65G C95U,0.05
20,C19U A78C,1.71
21,U47A A92U,0.5
22,U47C A94G,0.51
23,U73C G122A,1.19
24,U23A A64U,0.34

row,Variant,self-cleavage
1,U12A U143A,1.28
2,G32U A77C,1.31
3,G40A A136G,0.85
4,G7A A94U,0
5,U14C C98U,0.07
6,G53A U85A,0.14
7,A69G C128U,0.63
8,A30U A94U,0.34
9,G127U,1.24
10,U20C A121G,1.35
11,G55A U73A,0.12
12,U47C G89U,0.04
13,U9C U15G,1.09
14,G32A A42G,1.27
15,C90A U96C,0.04
16,C116U U130C,0.89
17,C28U U52C,1.58
18,U104C A129U,1.73
19,U62C G89A,0.01
20,G89A,0.04
21,C19U C38A,1.13
22,A30G A94G,0.34
23,U14C G35U,1.02
24,G4A U104C,0.83

row,Variant,self-cleavage
1,U12C U46G,0.82
2,G32A A136G,1.35
3,U20A G126A,1.28
4,A43G G72U,1.32
5,U85A A92U,0.11
6,A42U A142U,0.57
7,A2U A42U,0.47
8,A59G A78G,0.06
9,A69G G105A,0.62
10,A69U A140G,0.04
11,A78G G135A,1.17
12,U1A G11A,1.76
13,A124U A136G,1.43
14,U45C U130C,1.39
15,A43G U87A,0.08
16,U9C A78C,1.5
17,A77U U96C,0.1
18,U15A G36U,1.31
19,C76A U87G,0.11
20,A31C A140G,1.18
21,A92U C110U,0.46
22,A94G G97A,0.02
23,G58U G114A,0.03
24,A59U A142C,1.03

row,Variant,self-cleavage
1,U109C G125U,1.27
2,A24G G54C,0.72
3,A117G U119A,1.17
4,U47G U104C,1.48
5,U104C U130C,1.71
6,C71U U115C,1.12
7,U102G A121G,0.59
8,C90U,0.03
9,A124U U143A,1.75
10,A117G A138G,1.59
11,U104A A140G,0.47
12,G27A U91C,0.35
13,G53U A94G,0.2
14,U15C U39C,1.51
15,A59U U81A,1.53
16,U5C G135A,0.96
17,U9C U81C,1.21
18,A31U U46C,1.05
19,C84U A117G,0.2
20,A69U U81A,0.01
21,U62C A136U,0.05
22,A24G A57C,0
23,U15A C133U,1.31
24,A64G U81C,0.3

row,Variant,self-cleavage
1,C99U U130C,0.69
2,U13C U39G,1.54
3,U14C U15A,0.93
4,U91G U119C,0
5,U9A A124C,1.74
6,A79U A141U,2.36
7,C3A U87A,0.1
8,C19A U104C,1.14
9,A6U U20C,1.19
10,U13A C28U,0.76
11,C66A,0.05
12,G54A U115G,1.02
13,U100C A124U,2.22
14,U13C U87C,0.24
15,A77C G93A,0.06
16,A79G C110A,1.29
17,U81G A141G,1.85
18,U29C G41U,0.65
19,U13A G34A,1.13
20,U108A A124U,1.35
21,U15A G55C,0.15
22,G11A U119C,0.93
23,U73C G126A,2.44
24,G49A A50G,0.82

row,Variant,self-cleavage
1,U5A A129G,0.79
2,A59G G114C,0.03
3,U15C G27A,1.1
4,A2U A92U,0.32
5,U87A G127U,0.06
6,U102A U108C,1.14
7,U52A C99U,0.64
8,A92U A129U,0.6
9,U9A A92G,0.15
10,G127U U143C,1.66
11,A22G A77G,1.77
12,A42U U115A,1.39
13,U12A,1.17
14,A30U G40U,0.97
15,A50U G74U,1.04
16,A30U C95A,0.03
17,G7U A138G,1.31
18,U9A C123U,1.11
19,U20C A129U,1.3
20,A79U C84A,0.21
21,G106U G126A,1.15
22,C19U G114A,1.28
23,C90U G93U,0.04
24,U52C U143C,1.67

row,Variant,self-cleavage
1,U29C C71A,0.32
2,U47C A124U,1.68
3,A50G C113A,0.35
4,G44U A69G,0.66
5,U23C A117U,1.75
6,A2U G127C,1.16
7,G97C C111A,0.18
8,G48A U81C,1.14
9,U26C U134A,1.32
10,U20C U39A,1.48
11,U104A U134C,1.53
12,A30G U134A,1.05
13,U112A U143A,1.38
14,G48U,0.94
15,U46G A67G,0.32
16,A43G U62A,0.1
17,U5A A65C,0.08
18,A67G C98U,0.06
19,A65U A69U,0.03
20,C113A C145U,1.25
21,G88A U91C,0.05
22,A6G U45C,0.5
23,U130C C133U,1.42
24,U132C A136U,1.46

row,Variant,self-cleavage
1,U14C U62C,0.09
2,C37U U45C,1.02
3,G41A A59G,0.07
4,U1C G86A,0.06
5,U13G U96C,0.14
6,U13C A107U,1.14
7,C38U U96C,0.17
8,U73A C84U,0.16
9,U132C G144A,1.86
10,A77G C98G,0.21
11,G54C,0.86
12,A22G U81A,1.67
13,G35A U134G,0.47
14,A77G U119C,2.81
15,U14A G54A,0.4
16,U5C U108G,1.88
17,U104C U115A,0.22
18,A31G C128U,1.02
19,A121G A141U,1.77
20,A43G U132A,1.55
21,G32A A65G,0.11
22,U115C G137U,2.16
23,G25A A107G,0.88
24,U102C A136G,1.34

row,Variant,self-cleavage
1,U5G A67U,0.31
2,C28A G36A,1.9
3,U45C A117C,2.57
4,U45C A117U,1.36
5,G4U A136G,1.91
6,U119G A129G,1.15
7,U39G A67G,1.2
8,G4A U73C,1.68
9,U62A C128U,0.03
10,C63A A129U,0.06
11,U47G A64G,0.23
12,U115A A136U,1.52
13,U23A A30G,2.09
14,U87G A121U,0.2
15,U20A A77G,2.25
16,G72C,1.18
17,A94U G105A,0.21
18,A31G A124G,1.09
19,G82A U134G,1.08
20,C110U C146U,1.82
21,U62C C123G,0.07
22,C19A U26A,1.16
23,U109A A138G,0.7
24,A121U G125U,1.4

row,Variant,self-cleavage
1,U52C A59G,0.16
2,C98A U130C,0.13
3,C51U A78G,1.09
4,G70U U119A,0.03
5,A77U U85C,0.09
6,U81A A94G,0.37
7,U73G U87A,0.03
8,U26C A129U,1.24
9,U29A U85C,0.29
10,U12C U26C,1.39
11,U5C G25A,1.34
12,C128A U130C,1.11
13,A22G A94C,0.07
14,U20A A79G,0.92
15,G106A U109C,1.86
16,U20A U130C,1.45
17,U1C U100C,1.2
18,U15A U100G,1.07
19,A77C A121G,1.55
20,U46G U73C,1.02
21,C76A,1.71
22,A31U A142G,0.78
23,U39A G114U,1.15
24,U45C U134C,1.47

row,Variant,self-cleavage
1,U119G A136G,0.94
2,G36C U87C,0.25
3,A59U U132C,0.71
4,A124G G125A,0.75
5,G75U U104C,1.32
6,U13C U46C,1.17
7,G11A A138G,1.93
8,G34C U39C,1.65
9,U102C U119A,1.45
10,U100A U112A,0.91
11,A22G U29C,1.42
12,A2C A140G,1.28
13,G8A A138G,2.47
14,G86U,0.1
15,U13A C99U,0.46
16,G97C G106U,0.2
17,C38U C110A,1.64
18,U46A U112C,1.28
19,U29C U39C,1.74
20,U1A U87C,0.5
21,U85C A142G,0.17
22,U13C C28U,0.64
23,U26C C131A,0.78
24,A2G U134G,1.21

row,Variant,self-cleavage
1,C71A A129G,0.23
2,U5C G105U,1.32
3,G33A A43G,1.29
4,A50G G139U,0.37
5,A31U A65G,0.16
6,A50G U119C,1.11
7,A67G C95A,0.07
8,G53U U87A,0.05
9,G58U U115C,0.04
10,G34U U39A,1.89
11,G32C,1.23
12,G8U,1.39
13,U15A G49A,0.74
14,G36A U81A,2.04
15,U1C A69U,0.04
16,A31C A141G,1.43
17,A31U U134C,1.2
18,U100C C123U,2.06
19,A42G G44A,1.27
20,A22G G80U,1
21,A42G U62C,0.08
22,C76U A107G,2.53
23,G89C G122C,0.02
24,U23A U81A,1.7

row,Variant,self-cleavage
1,G74U U91A,0.57
2,G44A A79G,0.99
3,G82A C99A,0.78
4,A77G G89A,0.03
5,C113U G144A,0.31
6,G83A C90U,0.06
7,G89A C133U,0.03
8,G49A G54A,0.18
9,A117U A129C,1.23
10,C16A A136G,0.57
11,G10A A65G,0.02
12,A43G A129G,1.48
13,A43G A129U,0.95
14,A50G G55A,0.15
15,A43G U102G,0.84
16,A43G U102C,1.13
17,C37G U87C,0.2
18,U108G,1.5
19,U104A C146U,1.35
20,A69U G80A,0.3
21,G44A G89U,0.02
22,A31U G36U,0.81
23,G58C,0.03
24,A42U,0.98

row,Variant,self-cleavage
1,U1C U26A,0.53
2,C19A A138C,1.07
3,A30G A124U,1.44
4,G8U U81A,2.37
5,U14G A24G,0.79
6,U12C G34C,1.34
7,G40U A92G,0.02
8,U100A G139U,0.31
9,U102C C113A,1.63
10,U29C G34A,0.73
11,A30U C61G,0.08
12,A31C A129U,1.51
13,A30G U132C,1.05
14,G36U U143C,1.16
15,C37U C113U,0.42
16,G10U G97A,0.11
17,U12A U20C,1.05
18,A59G U96A,0.07
19,C18U A79G,1
20,U15A C103A,1.27
21,U23C U26C,1.29
22,C99A C113U,0.27
